The results in this text go back to patent publication US20140051120A1 (Genentech, published 2014).

Where a chain is given by its changes, count along the chain named. Where two headings read alike, the source gives them in different places. Where no end group is shown, it is not given here.

In assay [1] the target is T1, mouse EGFL7 (mEGFL7-CB-His) (mouse, UniProt Q9QXT5 22-275).
T1 sequence: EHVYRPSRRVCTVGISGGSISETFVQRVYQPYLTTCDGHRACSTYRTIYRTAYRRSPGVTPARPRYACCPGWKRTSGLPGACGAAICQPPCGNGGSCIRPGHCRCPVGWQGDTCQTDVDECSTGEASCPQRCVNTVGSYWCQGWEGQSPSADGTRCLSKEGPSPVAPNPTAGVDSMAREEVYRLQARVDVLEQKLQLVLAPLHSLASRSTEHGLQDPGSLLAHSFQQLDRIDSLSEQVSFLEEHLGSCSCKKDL
Nature of the assay: SPR (Biacore), IgG over immobilized mEGFL7-CB at 37 C.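 Note: IgG injected as twofold series from 0.5 to 1000 nM, 3 min association and 3.5 min dissociation, reference flow cell subtracted, kinetics fitted to 1:1 Langmuir model.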

In the next assay the target is T2, p5 peptide of EGFL7 (human).
T2 construct: also called Peptide P5
T2 peptide: RACSTYRTIYRTA
Nature of the assay: SPR (Biacore), IgG over immobilized P5 peptide at 37 C, n = 2.

The target of assay [2] is T3, p2S (p2 peptide biotinylated through its free cysteine) (human, also: biotinylated (maleimide PEO2-biotin) on one of the two Cys, which one not given here).
T3 construct: The peptide has two cysteines; also called b-p2S
T3 peptide: RPRYACCPGWKRT
Nature of the assay: SPR (BIAcore-2000), IgG injected over immobilized p2S peptide. (In general: Surface plasmon resonance follows binding to a sensor surface in real time, without labels.)

Assay [3] deals with T3, p2S (p2 peptide biotinylated through …). Described as above.

B1: 18F7.v6D IgG (antibody, V domains shown)
VH: EVQLVESGGGLVQPGGSLRLSCAASGYTFIDYYMNWVRQAPGKGLEWVGDINLDSGGTHYNQKFKGRFTISRDKSKNTAYLQMNSLRAEDTAVYYCAREGVYHDYDDYAMDYWGQGTLVTVSS
VL: DIQMTQSPSSLSASVGDRVTITCRTSQSLVHISGITYLHWYQQKPGKAPKLLIYRVSNRFSGVPSRFSGSGSGTDFTLTISSLQPEDFATYYCGQSTHVPLTFGQGTKVEIK
notes: IgG; Variant of 18F7.v6
Regarding B1, in assay [1], the Kd (usually a measure of binding affinity in units of concentration) was found to be 7.65 nM; the dissociation rate constant (koff) – broadly, a measure of how fast the partners let go of each other – is 0.000791 s⁻¹; the kon – broadly, the second-order rate constant of association – is 103000 M⁻¹ s⁻¹. In the assay with p5 peptide of EGFL7, this molecule returned a Kd of 9.77 nM, a koff of 0.00232 s⁻¹ and a kon of 313000 M⁻¹ s⁻¹.

B2: 4F11.v15 IgG (antibody, name in Kabat numbering, V domains shown)
VH: EVQLVESGGGLVQPGGSLRLSCAASGHTFTTYGMSWVRQAPGKGLEWVGWINTHSGVPTYADDFKGRFTISLDNSKNTAYLQMNSLRAEDTAVYYCARLGSSAVDYWGQGTLVTVSS
VL: DIQMTQSPSSLSASVGDRVTITCKASQSVDYDGDSYMSWYQQKPGKAPKLLIYGASNLESGVPSRFSGSGSGTDFTLTISSLQPEDFATYYCQQNNEDPYTFGQGTKVEIKR
notes: IgG; Kabat numbering
In assay [2], B2 returned a Kd of 30.5 nM, a dissociation rate constant (koff) of 0.00276 s⁻¹ and a kon of 90500 M⁻¹ s⁻¹.

B3: 4F11.v14 IgG (antibody, name in Kabat numbering, V domains shown)
VH: B2 VH with V2I, V48M, I70F, N74T, K76A, N77S, Y95F
VL: B2 VL with M4L
notes: IgG; Kabat numbering
As for B3, in assay [2], the dissociation constant Kd was found to be 7 nM, the off-rate constant (koff) came out at 0.000984 s⁻¹ and the kon turned out to be 141000 M⁻¹ s⁻¹.

B4: 4F11.v12 IgG (antibody, V domains shown)
VH: B2 VH with T53I, L72R, A79V
VL: DIQMTQSPSSLSASVGDRVTITCKASQSVDYDGDSYMSWYQQKPGKAPKLLIYGASNLESGVPSRFSGSGSGTDFTLTISSLQPEDFATYYCQQNNEDPYTFGQGTKVEIK
notes: IgG; Kabat numbering
B4: in assay [3], binding was characterised by a dissociation constant (Kd) of 11.1 nM, the koff was determined as 0.00218 s⁻¹ and the kon came to 196000 M⁻¹ s⁻¹.

B5: 4F11.v9 IgG (antibody, V domains shown)
VH: B2 VH with F29R, L72R, A79V
VL: B4 VL
notes: IgG; Kabat numbering
In assay [3], B5 displayed a Kd of 9 nM, a koff of 0.0023 s⁻¹ and an association rate constant (kon) of 264000 M⁻¹ s⁻¹.

B6: 4F11.v16 IgG (antibody, name in Kabat numbering, V domains shown)
VH: B2 VH with V2I, V48M, I70F, N74T, K76A, N77S, Y95F
VL: B2 VL
notes: IgG; Kabat numbering
In assay [2], B6 gave a Kd of 16.8 nM, a koff of 0.00165 s⁻¹ and a kon of 98100 M⁻¹ s⁻¹.

B7: 4F11.v5 IgG (antibody, V domains shown)
VH: B2 VH with L72R, A79V
VL: B4 VL with M37V
notes: IgG; Kabat numbering
In assay [3], B7 yielded a Kd of 34 nM, a koff of 0.00242 s⁻¹ and an on-rate (kon) of 71100 M⁻¹ s⁻¹.

B8: 4F11.v13 IgG (antibody, name in Kabat numbering, V domains shown)
VH: B2 VH
VL: B2 VL with M4L
notes: IgG; Kabat numbering
In assay [2], B8 gave a Kd of 12.5 nM, a koff of 0.00186 s⁻¹ and a kon of 149000 M⁻¹ s⁻¹.

B9: 4F11.v3 IgG (antibody, name in Kabat numbering, V domains shown)
VH: B2 VH with L72R, A79V
VL: B2 VL
notes: IgG; Kabat numbering
In assay [3], B9 registered a Kd of 34.6 nM, a koff of 0.00292 s⁻¹ and a kon of 84500 M⁻¹ s⁻¹.

B10: 4F11.v4 IgG (antibody, V domains shown)
VH: B2 VH with L72R, A79V
VL: B4 VL with D32R
notes: IgG; Kabat numbering
B10: in assay [3], the Kd was 13.6 nM, the dissociation rate constant (koff) turned out to be 0.00314 s⁻¹ and the kon was 231000 M⁻¹ s⁻¹.
